Laboratory results as given in paper PMC7117682, “A homogeneous SIRPα-CD47 cell-based, ligand-binding assay: Utility for small molecule drug development in immuno-oncology” (PLoS ONE, 2020).

B1: SIRPα-Avi-biotin (soluble, biotin-conjugated SIRPα d1 construct; allelic variant not stated for the experiment) (domain or fragment)
chain: EELQVIQPDKSVLVAAGETATLRCTATSLIPVGPIQWFRGAGPGRELIYNQKEGHFPRVTTVSDLTKRNNMDFSIRIGNITPADAGTYYCVKFRKGSPDDVEFKSG
modifications: biotin (biotin-conjugated, SIRPα-Avi-biotin)
B2: SIRPα variant 1, non-biotin conjugated (cold) (domain or fragment, human, UniProt P78324 31-148, looked up)
chain: EEELQVIQPDKSVLVAAGETATLRCTATSLIPVGPIQWFRGAGPGRELIYNQKEGHFPRVTTVSDLTKRNNMDFSIRIGNITPADAGTYYCVKFRKGSPDDVEFKSGAGTELSVRAKP
notes: SIRPα allelic variant 1, human; non-biotin conjugated analog of the biotin-conjugated d1 construct; also called cold SIRPαV1; non-biotin conjugated SIRPαV1; source: produced as described in [33]

Legend:
Conditions in all cases: one partner purified
[1] = molecular target: T1, CD47 naturally expressed on CD47(+) Jurkat T lymphoma cells (human (endogenous in Jurkat), UniProt Q08722 19-323); assay: laser scanning cytometry (LSC) on cells; titration of SIRPα-biotin on live DRAQ5-labelled Jurkat cells, 384-well, homogeneous (no wash), HEPES buffer (10 mM HEPES pH 7.5, 0.15 M NaCl), room temperature, neutravidin-Alexa488 0.5 μg/mL; SIRPα presented as a multimer on tetrameric neutravidin (avidity)
T1 construct: CD47, human, endogenous on the surface of Jurkat T lymphoma cells; also called cell-expressed CD47; native, cell surface expressed CD47; source: endogenous, on Jurkat cells (live or fixed in 4% paraformaldehyde)
T1 sequence (Q08722 19-323): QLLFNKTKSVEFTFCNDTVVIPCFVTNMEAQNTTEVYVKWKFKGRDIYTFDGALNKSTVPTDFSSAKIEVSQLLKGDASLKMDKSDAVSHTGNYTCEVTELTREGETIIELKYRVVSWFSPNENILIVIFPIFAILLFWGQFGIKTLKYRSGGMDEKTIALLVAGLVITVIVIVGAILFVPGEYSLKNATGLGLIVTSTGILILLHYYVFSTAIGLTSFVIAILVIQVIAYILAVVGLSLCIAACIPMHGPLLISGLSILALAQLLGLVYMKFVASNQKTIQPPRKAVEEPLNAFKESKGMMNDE

[2] = molecular target: T1, CD47 naturally expressed on CD47(+) …; assay: laser scanning cytometry (LSC) on cells; titration of SIRPα-biotin on Jurkat cells fixed in 4% paraformaldehyde (30 min on ice), homogeneous, neutravidin-Alexa488; with or without 1% DMSO
[3] = molecular target: T1, CD47 naturally expressed on CD47(+) …; assay: laser scanning cytometry (LSC) on cells; competition on live CD47(+) Jurkat cells, 384-well, homogeneous: a fixed concentration of SIRPα-biotin (20 nM) co-incubated with a titration of the competitor or inhibitor, neutravidin-Alexa488

Binder | EC50 [1] | EC50 [2] | IC50 [3]
B1 | 4.6 nM | 1.3 nM | –
B2 | – | – | 7500 nM
